{
  "source": "paper PMC3437676",
  "origin": "cited, not measured here",
  "target": "Asp25 (UniProt position 515, KEALLDTGADD)",
  "assay": "NMR",
  "details": "free model peptide",
  "data": [
    {"substance": "HIV-1 protease model peptide, residues 20-30 (Human immunodeficiency virus 1)", "values": [
      {"measurement": "pKa", "result": "near 4.0"}
    ]}
  ]
}
